Results reported in paper PMC4042526.

Biological target: Tbx20^eh1mut-EGFP (mouse) (UniProt Q9ES03)
Assay: affinity purification with mass spectrometry

Sequence of UniProt Q9ES03 (Q9ES03 whole entry F18L/S19I): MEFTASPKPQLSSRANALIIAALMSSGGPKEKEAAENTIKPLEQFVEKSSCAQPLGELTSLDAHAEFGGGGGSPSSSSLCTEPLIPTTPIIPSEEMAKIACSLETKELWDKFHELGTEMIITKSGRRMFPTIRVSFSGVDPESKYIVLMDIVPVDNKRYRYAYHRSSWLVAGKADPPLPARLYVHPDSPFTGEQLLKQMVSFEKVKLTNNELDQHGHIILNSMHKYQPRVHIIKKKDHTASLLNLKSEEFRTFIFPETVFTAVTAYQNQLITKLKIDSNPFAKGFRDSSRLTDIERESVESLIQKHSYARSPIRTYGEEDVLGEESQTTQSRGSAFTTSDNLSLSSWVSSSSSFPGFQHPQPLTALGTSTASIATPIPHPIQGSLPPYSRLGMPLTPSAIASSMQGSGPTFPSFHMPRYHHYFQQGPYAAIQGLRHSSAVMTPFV

Substance	fold decrease in eh1mut against wild-type Tbx20 (MS1-based) [fold]
Transducin-like enhancer of split 1 (from UniProt Q04724 1-770) (natural protein)	> 10
Transducin-like enhancer of split 3 (from UniProt Q04726 1-772) (natural protein)	> 10
